B1: CD3 × CD33-BspAb115 (bispecific antibody)
chain 1: NFMLTQPHSVSESPGKTVTISCTRTSGSIASNYVQWYQQRPGSSPTTVIYEDNQRPSGVPDRFSGSIDSSSNSASLTISGLKTEDEAAYYCQSYDRSNRVFGCGTKLTVLGGGGSGGGGSGGGGSGGGGSQVQLQESGPGLVKPSETLSLTCTVSGGSISSYYWSWIRQPAGKCLEWIGRIYTSGSTKYNPSLKSRVTMSVDTSKNQFSLKLISVTAADTAVYFCARERIRDLYFDYWGQGTLVTVSSDKTHTCPPCPAPEFEGGPSVFLFPPKPKDTLMISRTPEVTCVVVDVSHEDPEVKFNWYVDGVEVHNAKTKPREEQYNSTYRVVSVLTVLHQDWLNGKEYKCKVSNKALPASIEKTISKAKGQPREPQVYTLPPCREEMTKNQVSLWCLVKGFYPSDIAVEWESNGQPENNYKTTPPVLDSDGSFFLYSKLTVDKSRWQQGNVFSCSVMHEALHNHYTQKSLSLSPGK
chain 2: EVQLVQSGAEVKKPGSSVKVSCKASGYTITDSNIHWVRQAPGQSLEWIGYIYPYNGGTDYNQKFKNRATLTVDNPTNTAYMELSSLRSEDTAFYYCVNGNPWLAYWGQGTLVTVSSASTKGPSVFPLAPSSKSTSGGTAALGCLVKDYFPEPVTVSWNSGALTSGVHTFPAVLQSSGLYSLSSVVTVPSSSLGTQTYICNVNHKPSNTKVDKRVEPKSCDKTHTCPPCPAPEFEGGPSVFLFPPKPKDTLMISRTPEVTCVVVDVSHEDPEVKFNWYVDGVEVHNAKTKPREEQYNSTYRVVSVLTVLHQDWLNGKEYKCKVSNKALPASIEKTISKAKGQPREPQVCTLPPSREEMTKNQVSLSCAVKGFYPSDIAVEWESNGQPENNYKTTPPVLDSDGSFFLVSKLTVDKSRWQQGNVFSCSVMHEALHNRFTQKSLSLSPGK
chain 3: DIQLTQSPSTLSASVGDRVTITCRASESLDNYGIRFLTWFQQKPGKAPKLLMYAASNQGSGVPSRFSGSGSGTEFTLTISSLQPDDFATYYCQQTKEVPWSFGQGTKVEVKRTVAAPSVFIFPPSDEQLKSGTASVVCLLNNFYPREAKVQWKVDNALQSGNSQESVTEQDSKDSTYSLSSTLTLSKADYEKHKVYACEVTHQGLSSPVTKSFNRGEC
B2: CD3 × CD33-BspAb125 (bispecific antibody)
chain 1: not shown
chain 2: B1 chain 2
chain 3: B1 chain 3

Legend:
[1] = biological target: T1, CD3 on human donor PBMC / Pan T effector cells (human, UniProt P07766 23-207; P09693 23-182; P04234 22-171; P20963 22-164); experiment: cell-based or functional assay
T1 sequence (P07766 23-207, chain 1 of 4): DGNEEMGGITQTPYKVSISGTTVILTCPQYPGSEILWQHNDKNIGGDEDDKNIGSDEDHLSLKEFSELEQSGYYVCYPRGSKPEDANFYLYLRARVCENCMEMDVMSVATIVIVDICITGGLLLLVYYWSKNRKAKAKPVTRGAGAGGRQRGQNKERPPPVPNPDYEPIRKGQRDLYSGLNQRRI
T1 sequence (P09693 23-182, chain 2 of 4): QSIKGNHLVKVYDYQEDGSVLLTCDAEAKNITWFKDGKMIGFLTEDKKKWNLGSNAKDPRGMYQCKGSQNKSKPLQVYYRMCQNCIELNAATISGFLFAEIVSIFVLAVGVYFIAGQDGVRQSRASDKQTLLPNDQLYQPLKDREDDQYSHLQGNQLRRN
T1 sequence (P04234 22-171, chain 3 of 4): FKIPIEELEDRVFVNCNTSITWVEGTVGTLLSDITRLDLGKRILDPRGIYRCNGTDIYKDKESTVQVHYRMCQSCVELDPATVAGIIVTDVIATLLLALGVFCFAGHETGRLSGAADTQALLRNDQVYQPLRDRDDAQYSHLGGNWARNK
T1 sequence (P20963 22-164, chain 4 of 4): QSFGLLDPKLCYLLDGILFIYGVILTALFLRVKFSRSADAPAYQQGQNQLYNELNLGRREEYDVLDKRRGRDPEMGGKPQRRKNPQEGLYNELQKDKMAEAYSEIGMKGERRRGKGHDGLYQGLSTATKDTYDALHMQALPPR

[2] = biological target: T1, CD3 on human donor PBMC / Pan T …; experiment: cell-based or functional assay; remark: listed apart in the source

| Binder | Cytokine Release Assay (TNFα) Donor 0 EC50 [1] [nM] | Cytokine Release Assay (TNFα) Donor 0 gMFI max [1] [gMFI] | Cytokine Release Assay (TNFα) Donor 1 EC50 [1] [nM] | Cytokine Release Assay (TNFα) Donor 1 gMFI max [1] [gMFI] | Cytokine Release Assay (TNFα) Donor 2 EC50 [1] [nM] | Cytokine Release Assay (TNFα) Donor 2 gMFI max [1] [gMFI] | Cytokine Release Assay (TNFα) Donor 3 EC50 [1] [nM] | Cytokine Release Assay (TNFα) Donor 3 gMFI max [1] [gMFI] | Cytokine Release Assay (IL2) Donor 0 EC50 [2] [nM] | Cytokine Release Assay (IL2) Donor 0 gMFI max [2] [gMFI] | Cytokine Release Assay (IL2) Donor 1 EC50 [2] [nM] | Cytokine Release Assay (IL2) Donor 1 gMFI max [2] [gMFI] | Cytokine Release Assay (IL2) Donor 2 EC50 [2] [nM] | Cytokine Release Assay (IL2) Donor 2 gMFI max [2] [gMFI] | Cytokine Release Assay (IL2) Donor 3 EC50 [2] [nM] | Cytokine Release Assay (IL2) Donor 3 gMFI max [2] [gMFI] |
| --- | --- | --- | --- | --- | --- | --- | --- | --- | --- | --- | --- | --- | --- | --- | --- | --- |
| B1 | 0.0814 | 91600 | 0.0553 | 13000 | 0.0452 | 24100 | 0.046 | 48600 | 0.206 | 242000 | 0.0755 | 99300 | 0.0806 | 45200 | 0.0479 | 300000 |
| B2 | 0.475 | 39600 |  | 5100 | 0.054 | 12000 | 0.0446 | 17800 | 0.105 | 52800 | 0.102 | 22300 | 0.115 | 25100 |  | 65800 |
